According to the supplement of paper PMC10126150:
± gives the standard deviation of the averaged measurements.

Tested on: ATP
Assay: switch fluorescence ratio, 500 uM ATP over buffer (Cy3 cluster intensity, sum of 5 cycles each) (fold (ratio)); higher = stronger signal-on switching upon ATP binding; sequences stand for … in TCGTCGGCAGCGTCAGATGTGTATAAGAGACAGTTTTTTTTTTTTTTTTTTTTTTTTT…TC
Conditions: aptamer strand: ATP DNA aptamer (quencher-CACCTGGGGGAGTATTGCGGAGGAAGG + anchor), 100 nM annealed; ATP concentration: 500 uM
Procedure, shortened: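 Between each of five buffer/ATP cycles, the flow-cell was stripped with NaOH and re-annealed. Each cycle imaged Cy3-labelled switching-strand clusters, annealed to 100 nM quencher-labelled ATP aptamer on a modified Illumina MiSeq flow-cell, first in selection buffer and then after 15 min with 500 uM ATP at 22 °C. The fluorescence ratio is summed target-cycle over summed buffer-cycle Cy3 intensity per cluster, averaged per switch-domain sequence, with clusters outside 100-1000 RFU excluded.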
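Note: ATP exposure 15 min at 22 °C before imaging.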

## GGTAATGGTA
  switch fluorescence ratio: 0.9702 ± 0.0045

## GGTAATTATT
  switch fluorescence ratio: 0.951 ± 0.067

## GGTAATTGAA
  switch fluorescence ratio: 0.9878 ± 0.0076

## GGTACACAGC
  switch fluorescence ratio: 1.02 ± 0.015

## GGTACGGAAA
  switch fluorescence ratio: 1.02 ± 0.016

## GGTACGGCAA
  switch fluorescence ratio: 1.09 ± 0.019

## GGTACGGGGA
  switch fluorescence ratio: 1.03 ± 0.051

## GGTACGTTTG
  switch fluorescence ratio: 0.993 ± 0.033

## GGTAGACGGT
  switch fluorescence ratio: 1.02 ± 0.049

## GGTAGAGATT
  switch fluorescence ratio: 1.02 ± 0.037

## GGTAGAGTAC
  switch fluorescence ratio: 1.02 ± 0.046

## GGTAGCAGCG
  switch fluorescence ratio: 1.05 ± 0.059

## GGTAGGAGAG
  switch fluorescence ratio: 0.987 ± 0.0057

## GGTAGGAGTA
  switch fluorescence ratio: 0.932 ± 0.051

## GGTAGGGATC
  switch fluorescence ratio: 1.017 ± 0.0042

## GGTAGGGCGA
  switch fluorescence ratio: 1.01 ± 0.026

## GGTAGGTAGG
  switch fluorescence ratio: 1.01 ± 0.038

## GGTATAAAGG
  switch fluorescence ratio: 0.996 ± 0.014

## GGTATACGTA
  switch fluorescence ratio: 0.935 ± 0.071

## GGTATAGTTG
  switch fluorescence ratio: 0.993 ± 0.041

## GGTATATGTC
  switch fluorescence ratio: 0.994 ± 0.05

## GGTATATTGG
  switch fluorescence ratio: 1.01 ± 0.012

## GGTATCAGGA
  switch fluorescence ratio: 0.978 ± 0.013

## GGTATGGACA
  switch fluorescence ratio: 0.997 ± 0.013

## GGTATGGATA
  switch fluorescence ratio: 1 ± 0.027

## GGTATGGGGT
  switch fluorescence ratio: 1.03 ± 0.058

## GGTATGGGTG
  switch fluorescence ratio: 1.023 ± 0.0055

## GGTATGGTGG
  switch fluorescence ratio: 1.01 ± 0.036

## GGTATTATTT
  switch fluorescence ratio: 0.995 ± 0.023

## GGTATTCGAG
  switch fluorescence ratio: 1.02 ± 0.0013

## GGTATTGAGG
  switch fluorescence ratio: 0.9871 ± 0.003

## GGTCACGTAT
  switch fluorescence ratio: 1.05 ± 0.014

## GGTCAGGGTA
  switch fluorescence ratio: 1.01 ± 0.04

## GGTCATATGC
  switch fluorescence ratio: 1.04 ± 0.013

## GGTCATGACG
  switch fluorescence ratio: 0.923 ± 0.046

## GGTCATGTTG
  switch fluorescence ratio: 0.997 ± 0.051

## GGTCATTTGT
  switch fluorescence ratio: 1 ± 0.041

## GGTCCGATTA
  switch fluorescence ratio: 1 ± 0.056

## GGTCCTAGAA
  switch fluorescence ratio: 0.9724 ± 0.0011

## GGTCCTAGTC
  switch fluorescence ratio: 0.946 ± 0.12

## GGTCCTGCAA
  switch fluorescence ratio: 1.76 ± 1.1

## GGTCCTGTGG
  switch fluorescence ratio: 1.005 ± 0.006

## GGTCGAAGGC
  switch fluorescence ratio: 0.9859 ± 0.0069

## GGTCGCACCA
  switch fluorescence ratio: 1.02 ± 0.033

## GGTCGCAGTT
  switch fluorescence ratio: 0.999 ± 0.022

## GGTCGCCCAG
  switch fluorescence ratio: 1.01 ± 0.035

## GGTCGGGCTT
  switch fluorescence ratio: 1.01 ± 0.034

## GGTCGTGCGG
  switch fluorescence ratio: 1 ± 0.018

## GGTCGTTGGT
  switch fluorescence ratio: 1.04 ± 0.022

## GGTCTACATT
  switch fluorescence ratio: 1.01 ± 0.032

## GGTCTAGACG
  switch fluorescence ratio: 1.01 ± 0.044

## GGTCTAGATA
  switch fluorescence ratio: 0.99 ± 0.026

## GGTCTAGATT
  switch fluorescence ratio: 0.988 ± 0.013

## GGTCTGGCTT
  switch fluorescence ratio: 0.988 ± 0.052

## GGTCTGGTGC
  switch fluorescence ratio: 1.031 ± 0.0048

## GGTCTTAGTT
  switch fluorescence ratio: 0.987 ± 0.035

## GGTCTTGGGC
  switch fluorescence ratio: 1.02 ± 0.026

## GGTCTTGTGG
  switch fluorescence ratio: 0.993 ± 0.032

## GGTCTTTCG
  switch fluorescence ratio: 0.9794 ± 0.0025

## GGTGAAATGT
  switch fluorescence ratio: 0.9561 ± 0.0059

## GGTGAAGCTG
  switch fluorescence ratio: 1.05 ± 0.14

## GGTGAATGCG
  switch fluorescence ratio: 0.9779 ± 0.0048

## GGTGACGTGG
  switch fluorescence ratio: 1.02 ± 0.012

## GGTGACTGCT
  switch fluorescence ratio: 0.9543 ± 0.0024

## GGTGAGAAAT
  switch fluorescence ratio: 1.01 ± 0.04

## GGTGAGGCTA
  switch fluorescence ratio: 1 ± 0.022

## GGTGAGGTTG
  switch fluorescence ratio: 0.971 ± 0.02

## GGTGATACGC
  switch fluorescence ratio: 1.001 ± 0.0035

## GGTGATATAG
  switch fluorescence ratio: 0.984 ± 0.021

## GGTGATCGGC
  switch fluorescence ratio: 0.986 ± 0.029

## GGTGATGGGC
  switch fluorescence ratio: 1.01 ± 0.062

## GGTGATGGTG
  switch fluorescence ratio: 0.976 ± 0.047

## GGTGATGTTG
  switch fluorescence ratio: 0.9611 ± 0.0055

## GGTGATTATT
  switch fluorescence ratio: 1.02 ± 0.029

## GGTGCATGGG
  switch fluorescence ratio: 1.01 ± 0.034

## GGTGCATGGT
  switch fluorescence ratio: 1.05 ± 0.011

## GGTGCCAAGT
  switch fluorescence ratio: 1.004 ± 0.0052

## GGTGCCACTT
  switch fluorescence ratio: 1.03 ± 0.024

## GGTGCCGCGG
  switch fluorescence ratio: 1.01 ± 0.023

## GGTGCCGTTT
  switch fluorescence ratio: 0.998 ± 0.026

## GGTGCCTGGG
  switch fluorescence ratio: 1 ± 0.0011

## GGTGCGCGGA
  switch fluorescence ratio: 1.034 ± 0.0064

## GGTGCTGGCA
  switch fluorescence ratio: 0.956 ± 0.051

## GGTGCTTTTG
  switch fluorescence ratio: 0.9888 ± 0.0085

## GGTGGAATGT
  switch fluorescence ratio: 0.983 ± 0.049

## GGTGGAGCTA
  switch fluorescence ratio: 1.03 ± 0.015

## GGTGGATGGC
  switch fluorescence ratio: 1 ± 0.013

## GGTGGGAGTG
  switch fluorescence ratio: 1.37 ± 0.66

## GGTGGGGCGC
  switch fluorescence ratio: 1.01 ± 0.035

## GGTGGGGTCC
  switch fluorescence ratio: 0.987 ± 0.011

## GGTGGGGTTT
  switch fluorescence ratio: 0.999 ± 0.054

## GGTGGGTATT
  switch fluorescence ratio: 0.966 ± 0.021

## GGTGGGTGCA
  switch fluorescence ratio: 0.985 ± 0.036

## GGTGGTGGCT
  switch fluorescence ratio: 1.04 ± 0.079

## GGTGGTGGGT
  switch fluorescence ratio: 0.986 ± 0.021

## GGTGTAAGAG
  switch fluorescence ratio: 0.987 ± 0.031

## GGTGTAGCGG
  switch fluorescence ratio: 0.982 ± 0.065

## GGTGTAGGTG
  switch fluorescence ratio: 0.9851 ± 0.0098

## GGTGTCATAT
  switch fluorescence ratio: 0.984 ± 0.024

## GGTGTGAGTG
  switch fluorescence ratio: 0.973 ± 0.025
